The labels stand for the following.
B1: Caspase recruitment domain-containing protein 19 (Homo sapiens), Q96LW7 (parent)
chain: MTDQTYCDRLVQDTPFLTGHGRLSEQQVDRIILQLNRYYPQILTNKEAEKFRNPKASLRVRLCDLLSHLQRSGERDCQEFYRALYIHAQPLHSRLPSRHALRKFHITNHACLVLARGGHPSLPLMAWMSSMTTQVCCSPGLASPLASAPPQRPPSGPEGRVWQAQAVQMLVSVSHFLPLPPSLSHGSFHTAWGILYVHSCPSFSNLIPRGSLHVCVDSNLVPTAAWRS
partner: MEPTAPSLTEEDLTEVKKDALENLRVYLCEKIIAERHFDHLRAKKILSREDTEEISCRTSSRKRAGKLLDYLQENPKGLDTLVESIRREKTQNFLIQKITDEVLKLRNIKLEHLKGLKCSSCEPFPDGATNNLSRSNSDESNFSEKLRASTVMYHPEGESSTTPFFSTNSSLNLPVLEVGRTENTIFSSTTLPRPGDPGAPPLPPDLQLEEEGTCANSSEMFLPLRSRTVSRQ

Variants of B1 are the subject of this assay. Particulars: with bcl10_human BCL10, O95999.
With L65A, the “effect of a mutation on the interaction” value was “disrupting interaction”.

(Values after IntAct's records for PubMed 15637807.)
